Patent US20240147984A1 (SYNKLINO A S, published 2024)

Legend:
Assay in all cases: cell-based or functional assay
US28 [1] = target: T1, US28 (human cytomegalovirus, UniProt P69332 1-354)
T1 sequence: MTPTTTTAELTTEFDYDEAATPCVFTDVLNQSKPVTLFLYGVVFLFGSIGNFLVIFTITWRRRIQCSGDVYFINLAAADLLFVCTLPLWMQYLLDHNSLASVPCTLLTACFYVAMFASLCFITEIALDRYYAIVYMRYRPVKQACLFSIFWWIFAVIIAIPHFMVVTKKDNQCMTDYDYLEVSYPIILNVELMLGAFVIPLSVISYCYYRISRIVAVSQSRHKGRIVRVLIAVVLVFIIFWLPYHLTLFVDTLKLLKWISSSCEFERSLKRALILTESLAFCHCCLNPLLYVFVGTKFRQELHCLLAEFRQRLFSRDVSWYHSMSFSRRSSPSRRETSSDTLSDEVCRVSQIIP

US28 [2] = target: T1, US28; remark: listed apart in the source
CX3CR1 = target: T2, CX3CR1 (human, UniProt P49238 1-355)
T2 sequence: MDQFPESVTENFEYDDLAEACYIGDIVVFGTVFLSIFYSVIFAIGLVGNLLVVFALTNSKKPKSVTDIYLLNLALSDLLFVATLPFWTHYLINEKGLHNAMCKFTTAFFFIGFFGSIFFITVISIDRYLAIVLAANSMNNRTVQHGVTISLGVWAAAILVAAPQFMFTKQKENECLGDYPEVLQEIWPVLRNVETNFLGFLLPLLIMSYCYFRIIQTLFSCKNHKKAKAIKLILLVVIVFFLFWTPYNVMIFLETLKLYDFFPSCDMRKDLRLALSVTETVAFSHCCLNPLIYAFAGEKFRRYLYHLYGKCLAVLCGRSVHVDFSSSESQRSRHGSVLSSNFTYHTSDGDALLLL

B1: SYN001 (other)
chain: MQHHGVTKCNITCSKMTSKIPVALLIHYQQNQASCGKRAIILETRQHRLACADPKEQWVKDAMQHLDRQAAALTRNRQPRGWEQLEQSGYPVQRLVALYLAARLSWNQVDQVIRNALASPGSGGDLGEAIREQPEQARLALTLAAAESERFVRQGTGNDEAGAASGPADSGDALLERNYPTGAEFLGDGGDISFSTRGTQNWTVERLLQAHRQLEERGYVFVGYHGTFLEAAQSIVFGGVRARSQDLDAIWRGFYIAGDPALAYGYAQDQEPDARGRIRNGALLRVYVPRSSLPGFYRTGLTLAAPEAAGEVERLIGHPLPLRLDAITGPEEEGGRLETILGWPLAERTVVIPSAIPTDPRNVGGDLDPSSIPDKEQAISALPDYASQPGKPPKDE
Question: What does the source list for B1?
Answer: EC50 (log), potency assay; SYN001 1 mg/L, 0 min in perfusate at 37 C (US28 [1]): -9.95 log EC50; concentration unit not printed; EC50 (log), potency assay; SYN001 1 mg/L, 15 min in perfusate at 37 C (US28 [1]): -9.95 log EC50; concentration unit not printed; EC50 (log), potency assay; SYN001 1 mg/L, 180 min in perfusate at 37 C (US28 [1]): -10 log EC50; concentration unit not printed; EC50 (log), potency assay; SYN001 1 mg/L, 300 min in perfusate at 37 C (US28 [1]): -9.93 log EC50; concentration unit not printed; Log IC50, cell killing assay (US28 [2]): -10.7 log IC50; concentration unit not printed; Selectivity Ratio US28/CX3CR1 (cell killing IC50) (US28 [2]): 718 ratio; Log IC50, cell killing assay (CX3CR1): -7.82 log IC50; concentration unit not printed
